US20250325672A1

B1: BCY16911 (peptide)
peptide: CVNKHNPVCRFYC
modifications: not checked
B2: BCY18707 (peptide)
peptide: CIPLDWTCMIAC
modifications: not checked

Assays:
[1] = molecular target: SARS-CoV-2 protein used in the SPR assay of Example 2 (not named); experiment: SPR
[2] = molecular target: Biotinylated 2019-nCoV (COVID-19) S1 protein (16-685), His, Avitag (SARS-CoV-2), P0DTC2; experiment: SPR, Biacore T200, geomean

Row | Binder | pKD [1] | Kd [2] [nM]
1 | B1 | 8 | –
2 | B2 | – | 2440
